# Source: patent US20190194280A1
# Target: Serum samples collected at week 16 from patients immunized with UBI AD vaccine (UB-311)
# Assay: comp. ELISA, serum P208
row,Binder,IC50-based peak height
1,GYEVHHQKLV [Aβ9-18 or APP 770 (G680-V689)],0
2,EFRHDSGYEV [Aβ3-12 or APP 770 (E674-V683)],0
3,EVHHQKLVFF [Aβ11-20 or APP 770 (E682-F691)],0
4,QKLVFFAEDV [Aβ15-24 or APP 770 (Q686-V695)],0
5,YEVHHQKLVF [Aβ10-19 or APP 770 (Y681-F690)],0

# Target: Serum samples collected at week 16 from patients immunized with UBI AD vaccine (UB-311)
# Assay: comp. ELISA, serum P204
row,Binder,IC50-based peak height
1,GYEVHHQKLV [Aβ9-18 or APP 770 (G680-V689)],0
2,EFRHDSGYEV [Aβ3-12 or APP 770 (E674-V683)],0
3,EVHHQKLVFF [Aβ11-20 or APP 770 (E682-F691)],0
4,QKLVFFAEDV [Aβ15-24 or APP 770 (Q686-V695)],0
5,YEVHHQKLVF [Aβ10-19 or APP 770 (Y681-F690)],0

# Target: Serum samples collected at week 16 from patients immunized with UBI AD vaccine (UB-311)
# Assay: comp. ELISA, serum P102
row,Binder,IC50-based peak height
1,GYEVHHQKLV [Aβ9-18 or APP 770 (G680-V689)],0
2,EFRHDSGYEV [Aβ3-12 or APP 770 (E674-V683)],0
3,EVHHQKLVFF [Aβ11-20 or APP 770 (E682-F691)],0
4,QKLVFFAEDV [Aβ15-24 or APP 770 (Q686-V695)],0
5,YEVHHQKLVF [Aβ10-19 or APP 770 (Y681-F690)],0

# Target: Serum samples collected at week 16 from patients immunized with UBI AD vaccine (UB-311)
# Assay: comp. ELISA, serum P205
row,Binder,IC50-based peak height
1,GYEVHHQKLV [Aβ9-18 or APP 770 (G680-V689)],0
2,EFRHDSGYEV [Aβ3-12 or APP 770 (E674-V683)],0
3,EVHHQKLVFF [Aβ11-20 or APP 770 (E682-F691)],0
4,QKLVFFAEDV [Aβ15-24 or APP 770 (Q686-V695)],0
5,YEVHHQKLVF [Aβ10-19 or APP 770 (Y681-F690)],0

# Target: Serum samples collected at week 16 from patients immunized with UBI AD vaccine (UB-311)
# Assay: comp. ELISA, serum P101
row,Binder,IC50-based peak height
1,GYEVHHQKLV [Aβ9-18 or APP 770 (G680-V689)],0
2,EFRHDSGYEV [Aβ3-12 or APP 770 (E674-V683)],0
3,EVHHQKLVFF [Aβ11-20 or APP 770 (E682-F691)],0
4,QKLVFFAEDV [Aβ15-24 or APP 770 (Q686-V695)],0
5,YEVHHQKLVF [Aβ10-19 or APP 770 (Y681-F690)],0

# Target: Serum samples collected at week 16 from patients immunized with UBI AD vaccine (UB-311)
# Assay: comp. ELISA, serum P105
row,Binder,IC50-based peak height
1,GYEVHHQKLV [Aβ9-18 or APP 770 (G680-V689)],0
2,EFRHDSGYEV [Aβ3-12 or APP 770 (E674-V683)],0
3,EVHHQKLVFF [Aβ11-20 or APP 770 (E682-F691)],0
4,QKLVFFAEDV [Aβ15-24 or APP 770 (Q686-V695)],0
5,YEVHHQKLVF [Aβ10-19 or APP 770 (Y681-F690)],0

# Target: Serum samples collected at week 16 from patients immunized with UBI AD vaccine (UB-311)
# Assay: comp. ELISA, serum P109
row,Binder,IC50-based peak height
1,GYEVHHQKLV [Aβ9-18 or APP 770 (G680-V689)],0
2,EFRHDSGYEV [Aβ3-12 or APP 770 (E674-V683)],0
3,EVHHQKLVFF [Aβ11-20 or APP 770 (E682-F691)],0
4,QKLVFFAEDV [Aβ15-24 or APP 770 (Q686-V695)],0
5,YEVHHQKLVF [Aβ10-19 or APP 770 (Y681-F690)],0

# Target: Serum samples collected at week 16 from patients immunized with UBI AD vaccine (UB-311)
# Assay: comp. ELISA, serum P209
row,Binder,IC50-based peak height
1,GYEVHHQKLV [Aβ9-18 or APP 770 (G680-V689)],0
2,EFRHDSGYEV [Aβ3-12 or APP 770 (E674-V683)],0
3,EVHHQKLVFF [Aβ11-20 or APP 770 (E682-F691)],0
4,QKLVFFAEDV [Aβ15-24 or APP 770 (Q686-V695)],0
5,YEVHHQKLVF [Aβ10-19 or APP 770 (Y681-F690)],0

# Target: Serum samples collected at week 16 from patients immunized with UBI AD vaccine (UB-311)
# Assay: comp. ELISA, serum P202
row,Binder,IC50-based peak height
1,GYEVHHQKLV [Aβ9-18 or APP 770 (G680-V689)],0
2,EFRHDSGYEV [Aβ3-12 or APP 770 (E674-V683)],0
3,EVHHQKLVFF [Aβ11-20 or APP 770 (E682-F691)],0
4,QKLVFFAEDV [Aβ15-24 or APP 770 (Q686-V695)],0
5,YEVHHQKLVF [Aβ10-19 or APP 770 (Y681-F690)],0

# Target: Serum samples collected at week 16 from patients immunized with UBI AD vaccine (UB-311)
# Assay: comp. ELISA, serum P210
row,Binder,IC50-based peak height
1,GYEVHHQKLV [Aβ9-18 or APP 770 (G680-V689)],0
2,EFRHDSGYEV [Aβ3-12 or APP 770 (E674-V683)],0
3,EVHHQKLVFF [Aβ11-20 or APP 770 (E682-F691)],0
4,QKLVFFAEDV [Aβ15-24 or APP 770 (Q686-V695)],0
5,YEVHHQKLVF [Aβ10-19 or APP 770 (Y681-F690)],0

# Target: Serum samples collected at week 16 from patients immunized with UBI AD vaccine (UB-311)
# Assay: comp. ELISA, serum P107
row,Binder,IC50-based peak height
1,GYEVHHQKLV [Aβ9-18 or APP 770 (G680-V689)],0
2,EFRHDSGYEV [Aβ3-12 or APP 770 (E674-V683)],0
3,EVHHQKLVFF [Aβ11-20 or APP 770 (E682-F691)],0
4,QKLVFFAEDV [Aβ15-24 or APP 770 (Q686-V695)],0
5,YEVHHQKLVF [Aβ10-19 or APP 770 (Y681-F690)],0

# Target: Serum samples collected at week 16 from patients immunized with UBI AD vaccine (UB-311)
# Assay: comp. ELISA, serum P108
row,Binder,IC50-based peak height
1,GYEVHHQKLV [Aβ9-18 or APP 770 (G680-V689)],0
2,EFRHDSGYEV [Aβ3-12 or APP 770 (E674-V683)],0
3,EVHHQKLVFF [Aβ11-20 or APP 770 (E682-F691)],0
4,QKLVFFAEDV [Aβ15-24 or APP 770 (Q686-V695)],0
5,YEVHHQKLVF [Aβ10-19 or APP 770 (Y681-F690)],0

# Target: Serum samples collected at week 16 from patients immunized with UBI AD vaccine (UB-311)
# Assay: comp. ELISA, serum P106
row,Binder,IC50-based peak height
1,GYEVHHQKLV [Aβ9-18 or APP 770 (G680-V689)],0
2,EFRHDSGYEV [Aβ3-12 or APP 770 (E674-V683)],0
3,EVHHQKLVFF [Aβ11-20 or APP 770 (E682-F691)],0
4,QKLVFFAEDV [Aβ15-24 or APP 770 (Q686-V695)],0
5,YEVHHQKLVF [Aβ10-19 or APP 770 (Y681-F690)],0

# Target: Serum samples collected at week 16 from patients immunized with UBI AD vaccine (UB-311)
# Assay: comp. ELISA, serum P206
row,Binder,IC50-based peak height
1,GYEVHHQKLV [Aβ9-18 or APP 770 (G680-V689)],0
2,EFRHDSGYEV [Aβ3-12 or APP 770 (E674-V683)],0
3,EVHHQKLVFF [Aβ11-20 or APP 770 (E682-F691)],0
4,QKLVFFAEDV [Aβ15-24 or APP 770 (Q686-V695)],0
5,YEVHHQKLVF [Aβ10-19 or APP 770 (Y681-F690)],0

# Target: Serum samples collected at week 16 from patients immunized with UBI AD vaccine (UB-311)
# Assay: comp. ELISA, serum P103
row,Binder,IC50-based peak height
1,GYEVHHQKLV [Aβ9-18 or APP 770 (G680-V689)],0
2,EFRHDSGYEV [Aβ3-12 or APP 770 (E674-V683)],0
3,EVHHQKLVFF [Aβ11-20 or APP 770 (E682-F691)],0
4,QKLVFFAEDV [Aβ15-24 or APP 770 (Q686-V695)],0
5,YEVHHQKLVF [Aβ10-19 or APP 770 (Y681-F690)],0

# Target: Serum samples collected at week 16 from patients immunized with UBI AD vaccine (UB-311)
# Assay: comp. ELISA, serum P104
row,Binder,IC50-based peak height
1,GYEVHHQKLV [Aβ9-18 or APP 770 (G680-V689)],0
2,EFRHDSGYEV [Aβ3-12 or APP 770 (E674-V683)],0
3,EVHHQKLVFF [Aβ11-20 or APP 770 (E682-F691)],0
4,QKLVFFAEDV [Aβ15-24 or APP 770 (Q686-V695)],0
5,YEVHHQKLVF [Aβ10-19 or APP 770 (Y681-F690)],0

# Target: Serum samples collected at week 16 from patients immunized with UBI AD vaccine (UB-311)
# Assay: comp. ELISA, serum P207
row,Binder,IC50-based peak height
1,GYEVHHQKLV [Aβ9-18 or APP 770 (G680-V689)],16
2,EFRHDSGYEV [Aβ3-12 or APP 770 (E674-V683)],0
3,EVHHQKLVFF [Aβ11-20 or APP 770 (E682-F691)],0
4,QKLVFFAEDV [Aβ15-24 or APP 770 (Q686-V695)],0
5,YEVHHQKLVF [Aβ10-19 or APP 770 (Y681-F690)],10

# Target: Serum samples collected at week 16 from patients immunized with UBI AD vaccine (UB-311)
# Assay: comp. ELISA, serum P201
row,Binder,IC50-based peak height
1,GYEVHHQKLV [Aβ9-18 or APP 770 (G680-V689)],0
2,EFRHDSGYEV [Aβ3-12 or APP 770 (E674-V683)],0
3,EVHHQKLVFF [Aβ11-20 or APP 770 (E682-F691)],0
4,QKLVFFAEDV [Aβ15-24 or APP 770 (Q686-V695)],0
5,YEVHHQKLVF [Aβ10-19 or APP 770 (Y681-F690)],0

# Target: Immune sera of baboons immunized with UBI AD vaccine
# Assay: competitive inhibition ELISA
Binder,% inhibition at 0 µg/mL [%],% inhibition at 0.25 µg/mL [%],% inhibition at 0.5 µg/mL [%],% inhibition at 1 µg/mL [%],% inhibition at 2 µg/mL [%],% inhibition at 8 µg/mL [%],% inhibition at 32 µg/mL [%]
EFRHDSGYEV [Aβ3-12 or APP 770 (E674-V683)],0,1,1,0,0,0,3

# Target: Serum samples collected at week 16 from patients immunized with UBI AD vaccine (UB-311)
# Assay: comp. ELISA, serum P203
row,Binder,IC50-based peak height
1,GYEVHHQKLV [Aβ9-18 or APP 770 (G680-V689)],0
2,EFRHDSGYEV [Aβ3-12 or APP 770 (E674-V683)],0
3,EVHHQKLVFF [Aβ11-20 or APP 770 (E682-F691)],0
4,QKLVFFAEDV [Aβ15-24 or APP 770 (Q686-V695)],0
5,YEVHHQKLVF [Aβ10-19 or APP 770 (Y681-F690)],0
